Paper doi:10.1101/305292

Target: GFP-tagged epidermal growth factor receptor (EGFR-GFP) (human) (UniProt P00533)
Assay: dual-colour single-molecule TIRF colocalisation with step-wise photobleaching

tetramethylrhodamine-labelled epidermal growth factor (EGF-TMR) (ligand)
percent of EGFR foci colocalised with EGF, across 60 min: 40%
percent of all EGFR molecules in foci colocalised with EGF: 64%
